Measured values: US20140371148A1

Target: ACE from rabbit lung (rabbit) (UniProt P12822)
Assay: cell-based or functional assay

Chain of ACE from rabbit lung (rabbit) (P12822 34-1310 limits assumed, form in doubt): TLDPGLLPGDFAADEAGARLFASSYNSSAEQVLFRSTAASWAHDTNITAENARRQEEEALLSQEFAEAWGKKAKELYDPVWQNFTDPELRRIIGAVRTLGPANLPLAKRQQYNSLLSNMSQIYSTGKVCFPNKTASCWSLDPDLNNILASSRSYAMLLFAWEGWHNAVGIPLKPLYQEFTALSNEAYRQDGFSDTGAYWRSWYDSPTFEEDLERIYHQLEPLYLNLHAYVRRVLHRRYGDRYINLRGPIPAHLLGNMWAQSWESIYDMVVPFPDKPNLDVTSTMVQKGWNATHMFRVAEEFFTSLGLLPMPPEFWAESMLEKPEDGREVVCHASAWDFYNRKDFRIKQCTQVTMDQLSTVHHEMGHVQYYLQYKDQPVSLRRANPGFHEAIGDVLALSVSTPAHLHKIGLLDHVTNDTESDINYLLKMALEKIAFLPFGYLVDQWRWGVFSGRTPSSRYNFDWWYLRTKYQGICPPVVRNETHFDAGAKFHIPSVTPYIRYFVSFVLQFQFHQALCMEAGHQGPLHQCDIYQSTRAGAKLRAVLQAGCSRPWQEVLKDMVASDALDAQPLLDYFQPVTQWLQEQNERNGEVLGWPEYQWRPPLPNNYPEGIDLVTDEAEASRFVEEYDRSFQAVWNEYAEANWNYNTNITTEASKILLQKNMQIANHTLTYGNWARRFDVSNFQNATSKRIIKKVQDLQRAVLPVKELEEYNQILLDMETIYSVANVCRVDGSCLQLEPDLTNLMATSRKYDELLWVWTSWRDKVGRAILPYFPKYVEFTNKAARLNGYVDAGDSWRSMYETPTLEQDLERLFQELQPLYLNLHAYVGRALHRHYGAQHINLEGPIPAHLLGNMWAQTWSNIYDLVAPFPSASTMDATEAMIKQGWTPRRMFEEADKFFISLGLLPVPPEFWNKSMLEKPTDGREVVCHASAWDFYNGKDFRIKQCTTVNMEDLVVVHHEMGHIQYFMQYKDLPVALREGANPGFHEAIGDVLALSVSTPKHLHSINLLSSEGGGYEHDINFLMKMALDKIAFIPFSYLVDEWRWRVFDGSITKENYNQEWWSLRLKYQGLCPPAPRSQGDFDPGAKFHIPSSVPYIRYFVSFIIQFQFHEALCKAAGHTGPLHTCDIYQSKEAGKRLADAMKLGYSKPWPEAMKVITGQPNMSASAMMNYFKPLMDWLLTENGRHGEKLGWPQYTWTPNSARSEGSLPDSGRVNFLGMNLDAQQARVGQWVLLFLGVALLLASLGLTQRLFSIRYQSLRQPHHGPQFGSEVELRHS

## GLP-1-(7-37)-γ-Abu-N^ε2Lys-(Pyr)-WAP-OH (peptide)
  ACE inhibition IC50: > 10 µM
